Experimental data published in publication PMC5669925, “Tumor-expressed immune checkpoint B7x promotes cancer progression and antigen-specific CD8 T cell exhaustion and suppressive innate immune cells” (Oncotarget, 2017).
One block for each molecule: values may come before it.

Assays:
[1] = target: PD-1 on labeled cells (intercellular conjugate assay) (UniProt Q15116); assay: intercellular conjugate assay; two cell populations labeled with CFSE or Violet Cell Trace, 2 x 10^5 of each mixed in FACS buffer, 45 minutes at 37 degrees Celsius; co-localization read by FACS
Sequence of PD-1 on labeled cells (intercellular conjugate assay) (Q15116 25-288): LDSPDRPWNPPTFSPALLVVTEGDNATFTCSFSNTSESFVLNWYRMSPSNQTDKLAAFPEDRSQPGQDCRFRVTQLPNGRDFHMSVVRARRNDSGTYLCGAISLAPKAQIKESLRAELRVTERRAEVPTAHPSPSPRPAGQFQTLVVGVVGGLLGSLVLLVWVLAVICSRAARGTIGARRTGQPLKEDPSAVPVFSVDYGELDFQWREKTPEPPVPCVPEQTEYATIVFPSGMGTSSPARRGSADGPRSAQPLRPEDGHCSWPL

[2] = target: T1, Recombinant human NRP1 (R&D) (human, UniProt O14786 22-856); assay: BLI; BLItz system (ForteBio); human IgG fusion protein (25 ug/mL, 2 min) captured on anti-human IgG Fc capture sensors; protein analytes in 1x Kinetic Buffer (ForteBio); conditions: both partners purified
T1 construct: Neuropilin-1 (NRP1), human; Soluble analyte in BLI; no catalogue number or tag is printed; also called Rh-NRP1; source: bought: R&D systems
T1 sequence (looked up): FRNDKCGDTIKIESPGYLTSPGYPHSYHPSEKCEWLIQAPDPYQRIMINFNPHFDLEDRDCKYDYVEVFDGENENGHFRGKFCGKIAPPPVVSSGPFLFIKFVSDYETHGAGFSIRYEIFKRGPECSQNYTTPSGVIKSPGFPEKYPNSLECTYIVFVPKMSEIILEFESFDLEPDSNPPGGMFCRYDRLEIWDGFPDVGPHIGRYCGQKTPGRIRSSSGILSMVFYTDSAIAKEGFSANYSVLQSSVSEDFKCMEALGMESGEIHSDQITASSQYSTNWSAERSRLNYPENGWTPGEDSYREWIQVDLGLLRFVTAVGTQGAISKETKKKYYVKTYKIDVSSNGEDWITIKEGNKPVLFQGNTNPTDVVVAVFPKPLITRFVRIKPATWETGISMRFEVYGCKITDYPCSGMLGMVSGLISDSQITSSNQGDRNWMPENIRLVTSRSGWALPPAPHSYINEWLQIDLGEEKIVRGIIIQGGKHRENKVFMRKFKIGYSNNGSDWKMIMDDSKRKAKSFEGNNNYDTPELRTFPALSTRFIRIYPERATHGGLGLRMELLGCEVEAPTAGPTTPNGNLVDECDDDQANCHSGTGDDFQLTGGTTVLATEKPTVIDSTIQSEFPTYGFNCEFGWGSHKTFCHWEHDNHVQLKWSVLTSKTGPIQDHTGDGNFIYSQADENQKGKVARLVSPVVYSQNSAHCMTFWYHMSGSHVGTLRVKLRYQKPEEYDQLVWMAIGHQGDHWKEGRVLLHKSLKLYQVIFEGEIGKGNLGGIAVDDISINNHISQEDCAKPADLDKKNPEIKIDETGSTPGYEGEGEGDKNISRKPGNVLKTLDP

- percent co-localization [1]: 18%
Molecule: PD-L1 on labeled cells (intercellular conjugate assay) (from UniProt Q9NZQ7 19-290) (ligand)

- percent co-localization [1]: 24%
Molecule: PD-L2 on labeled cells (intercellular conjugate assay) (from UniProt Q9BQ51 20-273) (ligand)

- binding result [2]: binds
B1: Human Sema3a-hIgG1 (R&D) (Fc fusion, UniProt Q14563 21-771, looked up)
chain: NYQNGKNNVPRLKLSYKEMLESNNVITFNGLANSSSYHTFLLDEERSRLYVGAKDHIFSFDLVNIKDFQKIVWPVSYTRRDECKWAGKDILKECANFIKVLKAYNQTHLYACGTGAFHPICTYIEIGHHPEDNIFKLENSHFENGRGKSPYDPKLLTASLLIDGELYSGTAADFMGRDFAIFRTLGHHHPIRTEQHDSRWLNDPKFISAHLISESDNPEDDKVYFFFRENAIDGEHSGKATHARIGQICKNDFGGHRSLVNKWTTFLKARLICSVPGPNGIDTHFDELQDVFLMNFKDPKNPVVYGVFTTSSNIFKGSAVCMYSMSDVRRVFLGPYAHRDGPNYQWVPYQGRVPYPRPGTCPSKTFGGFDSTKDLPDDVITFARSHPAMYNPVFPMNNRPIVIKTDVNYQFTQIVVDRVDAEDGQYDVMFIGTDVGTVLKVVSIPKETWYDLEEVLLEEMTVFREPTAISAMELSTKQQQLYIGSTAGVAQLPLHRCDIYGKACAECCLARDPYCAWDGSACSRYFPTAKRRTRRQDIRNGDPLTHCSDLHHDNHHGHSPEERIIYGVENSSTFLECSPKSQRALVYWQFQRRNEERKEEIRVDDHIIRTDQGLLLRSLQQKDSGNYLCHAVEHGFIQTLLKVTLEVIDTEHLEELLHKDDDGDGSKTKEMSNSMTPSQKVWYRDFMQLINHPNLNTMDEFCEQVWKRDRKQRRQRPGHTPGNSNKWKHLQENKKGRNRRTHEFERAPRSV
notes: Semaphorin 3a (Sema3a), human; Commercial Fc fusion; no catalogue number; also called Sema3a-Ig; Semaphorin3a-hIgG1; source: bought: R&D systems
